Experimental data: US20250129355A1

T1: Upstream protein 1 (Up1) from Desulfonema ishimotonii
T1 sequence: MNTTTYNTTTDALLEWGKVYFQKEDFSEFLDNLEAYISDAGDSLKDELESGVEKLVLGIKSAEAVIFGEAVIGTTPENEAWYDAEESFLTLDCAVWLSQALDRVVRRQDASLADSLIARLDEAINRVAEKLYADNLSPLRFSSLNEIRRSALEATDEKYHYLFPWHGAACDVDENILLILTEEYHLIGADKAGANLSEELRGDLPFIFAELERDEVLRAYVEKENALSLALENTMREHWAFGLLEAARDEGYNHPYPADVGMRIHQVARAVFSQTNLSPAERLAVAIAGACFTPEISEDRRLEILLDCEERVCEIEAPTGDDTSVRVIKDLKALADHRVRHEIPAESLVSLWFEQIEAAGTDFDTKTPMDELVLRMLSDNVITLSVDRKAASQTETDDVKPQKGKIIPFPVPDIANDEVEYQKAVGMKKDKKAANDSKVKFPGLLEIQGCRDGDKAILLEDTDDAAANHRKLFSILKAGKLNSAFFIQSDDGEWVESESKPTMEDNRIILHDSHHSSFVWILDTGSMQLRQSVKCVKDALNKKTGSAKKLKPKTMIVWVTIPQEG


Key:
[1] = tested on: T1, Upstream protein 1 (Up1) from Desulfonema ishimotonii
[2] = tested on: TwinStrep-Up1Δloop mutant
[3] = tested on: Up1 fragment amino acids 296-565
[4] = tested on: Up1 fragment residues 396-565
[5] = tested on: Up1 single alanine substitution mutants
[6] = biological target: Up1 fused to an 3×HA epitope tag (expressed from a plasmid in HEK293T cells) (Desulfonema ishimotonii); experiment: cell-based or functional assay

Row | efficiency of Up1 cleavage in HEK293T cells across a panel of endogenous transcripts [6] [%] | Molecule | Up1 cleavage in vitro (SDS-PAGE) [1] | Up1 cleavage in vitro (western blot) [2] | cleavage of truncated Up1 [3] | cleavage of truncated Up1 in vitro (SDS-PAGE) [4] | gRAMP-CHAT mediated protein cleavage of alanine mutants [5] | Up1 cleavage in vitro (western blot) (Up1 with D430 deleted) | Up1 cleavage in vitro (western blot) (Up1 with M427 deleted) | cleavage of Up1 within the Up1-Up3 complex (SDS-PAGE) (Up1-Up3 complex) | proteolytic cleavage of Up1 in the purified Up1-Up3 complex (SDS-PAGE, Coomassie) (Up1-Up3 complex) | cleavage of the protein substrate in vitro (SDS-PAGE) [1] | substrate turnover in vitro [1]
1 |  | gRAMP(D429A/D654A)-CHAT-crRNA complex | disrupting the catalytic sites of gRAMP (D429A/D654A) did not |  |  |  |  |  |  |  |  |  | 
2 | 3 to 22 | gRAMP-CHAT-crRNA complex from Desulfonema ishimotonii | the largest protein, Up1, is specifically cleaved in response to target RNA | truncating the loop by four residues, or deleting M427 alone, prevented in vitro cleavage | Smaller versions of Up1 containing amino acids 296-565 retained full activity for processing | Up1 fragments containing residues 396-565 were fully active in vitro | No single alanine mutation blocks CHAT protease activity | the deletion of D430 had no effect | truncating the loop by four residues, or deleting M427 alone, prevented in vitro cleavage | an Up1-Up3 complex which could be cleaved by gRAMP-CHAT in the presence of target RNA | only in the lane with gRAMP-CHAT (+) and target RNA (+) the Up1 band becomes weaker and two new bands appear, at about 50 kDa and just above 15 kDa; much Up1 stays uncleaved; the Up3 band at 25 kDa is unchanged; no new bands without gRAMP-CHAT or with gRAMP-CHAT but without target RNA | the substrate is neighboring protein WP_124327587.1 (FIG. 2), that cleavage of the substrate is dependent on presence of a target RNA | cleaving 100-fold excess of Up1 substrate in minutes
3 |  | gRAMP-CHAT(H615A/C658A)-crRNA complex (enzyme, part only; not given: gRAMP, His tag, crRNA) chain, part: MSNPIRDIQDRLKTAKFDNKDDMMNLASSLYKYEKQLMDSSEATLCQQGLSNRPNSFSQLSQFRDSDIQSKAGGQTGKFWQNEYEACKNFQTHKERRETLEQIIRFLQNGAEEKDADDLLLKTLARAYFHRGLLYRPKGFSVPARKVEAMKKAIAYCEIILDKNEEESEALRIWLYAAMELRRCGEEYPENFAEKLFYLANDGFISELYDIRLFLEYTEREEDNNFLDMILQENQDRERLFELCLYKARACFHLNQLNDVRIYGESAIDNAPGAFADPFWDELVEFIRMLRNKKSELWKEIAIKAWDKCREKEMKVGNNIYLSWYWARQRELYDLAFMAQDGIEKKTRIADSLKSRTTLRIQELNELRKDAHRKQNRRLEDKLDRIIEQENEARDGAYLRRNPPCFTGGKREEIPFARLPQNWIAVHFYLNELESHEGGKGGHALIYDPQKAEKDQWQDKSFDYKELHRKFLEWQENYILNEEGSADFLVTLCREIEKAMPFLFKSEVIPEDRPVLWIPHGFLHRLPLHAAMKSGNNSNIEIFWERHASRYLPAWHLFDPAPYSREESSTLLKNFEEYDFQNLENGEIEVYAPSSPKKVKEAIRENPAILLLLCAGEADMTNPFRSCLKLKNKDMTIFDLLTVEDVRLSGSRILLGAAESDMVPPLEFSVDEHLSVSGAFLSHKAGEIVAGLWTVDSEKVDECYSYLVEEKDFLRNLQEWQMAETENFRSENDSSLFYKIAPFRIIGFPAE | mutating the catalytic residues of the CHAT protease (H615A/C658A) abolished activity |  |  |  |  |  |  |  |  |  | 
